Assays:
[1] = target: Phosphodiesterase I, 3',5'-cyclic-nucleotide-specific (PDE) (bovine) (UniProt P14100)
[2] = target: Calcineurin (PPase-2B, CaN) (bovine)
[3] = target: Myosin light chain kinase (MLCK), human, recombinant, GST-tagged (human) (UniProt Q15746)
Chain of Myosin light chain kinase (MLCK), human, recombinant, GST-tagged (human) (Q15746 whole entry): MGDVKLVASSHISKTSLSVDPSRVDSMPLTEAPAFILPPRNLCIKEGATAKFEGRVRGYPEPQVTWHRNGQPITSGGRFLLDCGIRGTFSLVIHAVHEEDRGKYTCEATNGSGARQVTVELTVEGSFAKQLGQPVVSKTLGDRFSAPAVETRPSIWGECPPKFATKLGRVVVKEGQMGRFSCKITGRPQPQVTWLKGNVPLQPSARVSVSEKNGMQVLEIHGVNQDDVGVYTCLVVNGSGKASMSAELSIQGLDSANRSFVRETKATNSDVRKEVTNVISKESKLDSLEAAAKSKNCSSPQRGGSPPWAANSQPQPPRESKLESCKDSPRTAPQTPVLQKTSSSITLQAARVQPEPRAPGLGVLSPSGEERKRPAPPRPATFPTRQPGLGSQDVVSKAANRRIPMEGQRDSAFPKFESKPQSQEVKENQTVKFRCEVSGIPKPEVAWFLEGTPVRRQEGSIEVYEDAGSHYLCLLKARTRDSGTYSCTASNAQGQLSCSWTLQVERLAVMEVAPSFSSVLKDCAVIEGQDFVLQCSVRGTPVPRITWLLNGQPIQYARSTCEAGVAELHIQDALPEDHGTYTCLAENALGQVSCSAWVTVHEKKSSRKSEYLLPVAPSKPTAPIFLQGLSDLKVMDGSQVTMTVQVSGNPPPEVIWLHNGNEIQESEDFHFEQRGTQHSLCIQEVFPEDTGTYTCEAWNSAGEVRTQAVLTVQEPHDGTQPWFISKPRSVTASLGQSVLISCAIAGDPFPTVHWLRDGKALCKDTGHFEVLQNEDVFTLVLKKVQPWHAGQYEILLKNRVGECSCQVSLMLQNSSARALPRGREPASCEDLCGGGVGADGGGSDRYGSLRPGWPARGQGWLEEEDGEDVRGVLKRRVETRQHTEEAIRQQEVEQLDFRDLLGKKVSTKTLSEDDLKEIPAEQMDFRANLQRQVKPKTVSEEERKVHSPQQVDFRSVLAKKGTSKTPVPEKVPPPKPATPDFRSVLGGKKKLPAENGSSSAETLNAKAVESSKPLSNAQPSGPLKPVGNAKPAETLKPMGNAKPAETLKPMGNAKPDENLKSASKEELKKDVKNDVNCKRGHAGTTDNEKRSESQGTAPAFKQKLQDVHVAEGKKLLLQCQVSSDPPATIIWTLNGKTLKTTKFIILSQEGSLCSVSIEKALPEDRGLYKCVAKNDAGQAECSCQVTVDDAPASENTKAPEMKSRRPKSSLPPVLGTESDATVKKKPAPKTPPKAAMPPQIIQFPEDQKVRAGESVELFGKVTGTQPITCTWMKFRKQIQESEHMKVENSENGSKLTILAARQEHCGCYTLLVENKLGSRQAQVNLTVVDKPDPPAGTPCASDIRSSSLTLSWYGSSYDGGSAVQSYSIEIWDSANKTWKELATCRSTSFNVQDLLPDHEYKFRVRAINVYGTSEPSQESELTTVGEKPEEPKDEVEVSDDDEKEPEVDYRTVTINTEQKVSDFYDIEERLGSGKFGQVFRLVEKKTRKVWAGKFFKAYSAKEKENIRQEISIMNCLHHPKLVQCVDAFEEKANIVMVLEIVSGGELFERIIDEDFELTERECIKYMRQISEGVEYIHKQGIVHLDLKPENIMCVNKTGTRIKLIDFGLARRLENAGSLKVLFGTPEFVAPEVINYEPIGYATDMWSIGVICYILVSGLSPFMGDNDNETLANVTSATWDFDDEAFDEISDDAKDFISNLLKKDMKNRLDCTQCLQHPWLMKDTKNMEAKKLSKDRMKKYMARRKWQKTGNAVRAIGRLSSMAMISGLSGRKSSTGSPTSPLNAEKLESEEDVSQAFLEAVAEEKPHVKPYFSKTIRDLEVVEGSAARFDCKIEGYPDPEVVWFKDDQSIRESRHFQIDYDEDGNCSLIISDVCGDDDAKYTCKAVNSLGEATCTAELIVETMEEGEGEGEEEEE

Chain of Phosphodiesterase I, 3',5'-cyclic-nucleotide-specific (PDE) (bovine) (P14100 whole entry): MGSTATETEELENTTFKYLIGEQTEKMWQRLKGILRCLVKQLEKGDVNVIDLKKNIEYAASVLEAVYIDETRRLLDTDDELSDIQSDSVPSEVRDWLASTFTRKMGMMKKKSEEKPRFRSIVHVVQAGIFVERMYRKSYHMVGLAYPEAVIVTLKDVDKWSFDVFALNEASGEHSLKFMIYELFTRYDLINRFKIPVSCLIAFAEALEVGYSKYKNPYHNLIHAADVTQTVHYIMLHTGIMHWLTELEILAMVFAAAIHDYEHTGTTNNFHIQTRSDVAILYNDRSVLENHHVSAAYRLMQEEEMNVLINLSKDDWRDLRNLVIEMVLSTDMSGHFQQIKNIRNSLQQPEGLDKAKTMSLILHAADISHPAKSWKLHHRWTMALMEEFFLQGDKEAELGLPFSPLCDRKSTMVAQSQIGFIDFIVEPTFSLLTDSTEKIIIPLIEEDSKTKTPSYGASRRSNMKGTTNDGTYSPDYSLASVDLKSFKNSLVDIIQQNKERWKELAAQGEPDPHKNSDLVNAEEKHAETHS

- activation of PDE activity (mant-cGMP hydrolysis, 25°C, 150 nmol/L CaM, 6.5 nmol/L PDE, 1 mmol/L CaCl2), fold over the basal activity [1]: 2 fold
- activation of CaN phosphatase activity (PNPP dephosphorylation) by CaM, fold over the basal activity [2]: 2.34 fold
- activation of CaN phosphatase activity (PNPP dephosphorylation, 28°C) against the CaM concentration, EC50 [2]: 0.67 nM
- activation of MLCK kinase activity (ADP-Glo luminescence, room temperature, 0.5 mmol/L CaCl2) against the CaM concentration, EC50 [3]: 5.6 nM
Substance: Human recombinant calmodulin (CaM) (from UniProt P0DP23 1-149) (natural protein)

From article PMC7429351, “Comparison of ligand binding and conformational stability of human calmodulin with its homolog from the malaria parasite Plasmodium falciparum” (FASEB BioAdvances, 2020)
